According to patent US9416187B2, “CD-20 specific antibodies and methods of employing same” (Duke University, dated 2016):
Where a chain is given by its changes, count along the chain named.

T1: mouse CD20 (mouse, UniProt P19437)
T1 sequence: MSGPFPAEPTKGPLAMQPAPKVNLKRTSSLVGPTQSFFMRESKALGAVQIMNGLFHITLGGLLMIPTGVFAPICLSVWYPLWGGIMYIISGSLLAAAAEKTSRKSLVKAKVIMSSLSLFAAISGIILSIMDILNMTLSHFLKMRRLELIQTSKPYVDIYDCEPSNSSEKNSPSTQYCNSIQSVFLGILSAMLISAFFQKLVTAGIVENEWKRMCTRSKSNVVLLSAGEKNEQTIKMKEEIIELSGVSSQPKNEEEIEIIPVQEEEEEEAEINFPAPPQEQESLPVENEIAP

T2: human CD20 (human, UniProt P11836)
T2 sequence: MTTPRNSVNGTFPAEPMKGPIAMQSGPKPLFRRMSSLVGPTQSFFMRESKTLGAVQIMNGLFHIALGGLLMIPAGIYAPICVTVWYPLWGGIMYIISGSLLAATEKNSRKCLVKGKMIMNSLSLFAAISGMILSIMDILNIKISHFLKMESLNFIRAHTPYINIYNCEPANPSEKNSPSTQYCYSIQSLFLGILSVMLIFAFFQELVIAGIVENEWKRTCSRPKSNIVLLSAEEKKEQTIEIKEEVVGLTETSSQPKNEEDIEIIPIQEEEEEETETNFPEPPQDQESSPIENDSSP

B1: HB20-25 monoclonal antibody (antibody, V domains shown)
VH: EVQLQESGAELVKPGASVKMSCKASGFRFTNYNLHWVKQTPGQGLEWIGAIYPGNGETSYNQKFKGKATLTADKSSSTAYMQLRSLTSGDSAVYYCARFYYYGSSYGAMDYWGQGTSVTVSS
VL: MWGSVFNFSIVDARCDIQMTQSPASLSVSVGETVTITCRASENIYSNLAWYQQKQGKSPQLLVYAATNLADGVPSRFSGSGSGTQYSLKINSLQSEDFGSYYCQHFWGIPWTFGGGTKLEIKR
B2: MB20-1 monoclonal antibody (antibody, V domains shown)
VH: EVQLQESGGGLVQPGGSLKLSCAASGFTFSDYGMAWVRQAPRKGPEWVAFISNLAYSIYYADTVTGRFTISRENAKNTLYLEMSSLRSEDTAMYFCTRTGYYALDYWGQGTSVTVSS
VL: NIMMTQSPSSLAVSAGEKVTMRCKSSQSVLYSSKRKNYLAWYQQKPGKSPTLLIYWASTRESGVPDRFTGSGSGTDFTLTITSVQAEDLAVYYCHQYLSSFTFGGGTKLEIKR
B3: MB20-2 monoclonal antibody (antibody, V domains shown)
VH: EVQLQESGPELVKPGASVKISCKASGYMFTDYYIKWVKQSHGKSLEWIGDINPNNGDTIYNQKFKGKATLTVDKSSNTAYMDLRSLTSEDSAVYYCARERFAYWGQGTLVTVSA
VL: EIVLTQSPTTMAASPGEKITITCSVSSSIRSNYLHWYQQKPGFSPKLLIYRTSNLASGVPARFSGSGSGTSYSLTVATMEAEDVATYYCQQGSSIPLTFGAGTKLELKR
B4: MB20-14 monoclonal antibody (antibody, V domains shown)
VH: B3 VH with S85I
VL: B3 VL
B5: MB20-7 monoclonal antibody (antibody, V domains shown)
VH: B3 VH with E10D, I34M, I59T, K65E, N77S, D82E
VL: B3 VL with I2L, M11K, K40R, V76I, A77G, I95L
B6: MB20-8 monoclonal antibody (antibody, V domains shown)
VH: B3 VH with E10D, M28T, I34M, E46D, T58I, K65E, N77S, D82E
VL: B3 VL with S28N, V76I, A77G, E80K
B7: MB20-10 monoclonal antibody (antibody, V domains shown)
VH: B3 VH with E10D, M28T, I34M, E46D, T58I, K65E, N77S, D82E
VL: B3 VL with S28N, V76I, A77G, E80K
B8: MB20-18 monoclonal antibody (antibody, V domains shown)
VH: B3 VH with P9L, E10D, M28T, I34M, E46D, T58I, K65E, N77S, D82E
VL: SIVMTQTPKFLLVSTGDRVTITCKASQTVTNDLAWYQQKPGQSPKLLIYYASNRYTGVPDRFTGSGYGTDFTFTINTVQAEDLAVYFCQQDYSSPLTFGAGTKLELKR
B9: MB20-13 monoclonal antibody (antibody, V domains shown)
VH: B2 VH
VL: B3 VL with T5A, M11T, V25A, R30T, V76I, A77G, I95K, P96T
B10: HB20-3 monoclonal antibody (antibody, V domains shown)
VH: EVQLQESGAELVKPGASVKMSCKASGFTFTNYNMHWLKQTPGQGLEWIGAIYPENGDTSYNQKFKGKATLTADKASSTAYMHLSSLTSEDSAVYFCARFYYYGSYYGAMDYWGQGTSVTVSS
VL: MWGSVFNFSIVGARCDIQMTQSPASLSASVGETVTITCRASGNIHNYLAWYQQKQGKSPQLLVYNAKTLADGVPSRFSGSGSGTQFSLKINSLQPEDFGSYYCQHFWSTPWTFGGGTKLEIKR
B11: HB20-4 monoclonal antibody (antibody, V domains shown)
VH: B10 VH with L37V, K63R, A75S, S91T, M109L
VL: B10 VL with N43S, Q55L, T109I

How the values were obtained:
[1] = target: T1, mouse CD20; test: flow cytometry, spleen CD19+ B cells, control staining
[2] = target: T2, human CD20; test: flow cytometry, human blood B cells, saturating antibody
[3] = target: T2, human CD20; test: flow cytometry, Raji cells, saturating antibody
[4] = target: T2, human CD20; test: flow cytometry, DHL-4 cells, saturating antibody
[5] = target: T2, human CD20; test: flow cytometry, BJAB cells, saturating antibody
[6] = target: T1, mouse CD20; test: flow cytometry, spleen CD19+ B cells, 0.5 µg/mL antibody

Molecule | mean linear fluorescence intensity [1] | mean linear fluorescence intensity [2] | mean linear fluorescence intensity [3] | mean linear fluorescence intensity [4] | mean linear fluorescence intensity [5] | B cell reactivity (mean linear fluorescence intensity) [6]
isotype-matched control monoclonal antibodies | < 6 | – | – | – | – | –
B9E9 anti-CD20 monoclonal antibody | – | 112 | 438 | 162 | 377 | –
B1 anti-CD20 monoclonal antibody | – | 277 | 944 | 486 | 700 | –
1F5 anti-CD20 monoclonal antibody | – | 104 | 455 | 169 | 386 | –
B1 | – | 227 | 1350 | 514 | 849 | –
B2 | – | – | – | – | – | 69
B3 | – | – | – | – | – | 209
B4 | – | – | – | – | – | 166
B5 | – | – | – | – | – | 525
B6 | – | – | – | – | – | 240
B7 | – | – | – | – | – | 317
B8 | – | – | – | – | – | 729
B9 | – | – | – | – | – | 603
B10 | – | 469 | 2220 | 765 | 1200 | –
B11 | – | 397 | 1580 | 578 | 1100 | –
